Publication PMC3189932, “Viral Double-Strand RNA-Binding Proteins Can Enhance Innate Immune Signaling by Toll-Like Receptor 3”

What was measured:
H-cp149 = H-cp149 (Hepatitis B virus, UniProt P03147 1-149); experiment: UV crosslinking; 4 mM Mg2+; no shift; 50 mM Tris-HCl pH 7.5, 4 mM MgCl2, 50 mM NaCl, 1 mM DTT; 400 ng protein, 1 pmol RNA; UV 1200 mJ 3 min then SDS-PAGE (crosslinking); nondenaturing stacked 5/20%; conditions: protein: recombinant; chain copies: 2; label: Cy5; hairpin, 11-bp stem, GNRA tetraloop
H-cp149, sequence (P03147 1-149): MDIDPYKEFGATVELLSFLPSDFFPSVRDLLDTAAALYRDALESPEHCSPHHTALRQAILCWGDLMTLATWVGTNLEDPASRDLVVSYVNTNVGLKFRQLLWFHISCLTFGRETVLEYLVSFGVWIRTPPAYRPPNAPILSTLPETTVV

R-cp = R-cp (Ross River virus, UniProt P13890 1-270); experiment: UV crosslinking; 4 mM Mg2+; 50 mM Tris-HCl pH 7.5, 4 mM MgCl2, 50 mM NaCl, 1 mM DTT; 400 ng protein, 1 pmol RNA; UV 1200 mJ 3 min then SDS-PAGE (crosslinking); nondenaturing stacked 5/20%; conditions: protein: recombinant; label: Cy5; hairpin, 11-bp stem, GNRA tetraloop
R-cp, sequence (P13890 1-270): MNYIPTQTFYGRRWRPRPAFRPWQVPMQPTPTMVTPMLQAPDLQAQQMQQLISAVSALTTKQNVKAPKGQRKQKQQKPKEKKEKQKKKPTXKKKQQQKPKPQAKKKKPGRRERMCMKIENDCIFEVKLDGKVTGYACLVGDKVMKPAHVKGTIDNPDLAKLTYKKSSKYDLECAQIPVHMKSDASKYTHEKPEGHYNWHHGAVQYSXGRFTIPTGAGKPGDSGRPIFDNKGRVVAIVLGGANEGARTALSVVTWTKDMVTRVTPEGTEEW

B-cp = target: T1, B-cp (Brome mosaic virus, UniProt P03602 1-189); experiment: as above; conditions: protein: native; label: Cy5; hairpin, 11-bp stem, GNRA tetraloop
T1 sequence: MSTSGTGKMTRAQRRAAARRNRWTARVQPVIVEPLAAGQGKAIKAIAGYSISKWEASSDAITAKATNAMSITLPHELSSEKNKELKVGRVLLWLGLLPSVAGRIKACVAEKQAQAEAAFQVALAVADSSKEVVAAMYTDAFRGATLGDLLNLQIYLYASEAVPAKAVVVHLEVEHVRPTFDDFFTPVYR

H-cp183 = H-cp183 (Hepatitis B virus, UniProt P03147 1-183); experiment: as above; conditions: protein: recombinant; chain copies: 2; label: Cy5; hairpin, 11-bp stem, GNRA tetraloop
H-cp183, sequence (P03147 whole entry): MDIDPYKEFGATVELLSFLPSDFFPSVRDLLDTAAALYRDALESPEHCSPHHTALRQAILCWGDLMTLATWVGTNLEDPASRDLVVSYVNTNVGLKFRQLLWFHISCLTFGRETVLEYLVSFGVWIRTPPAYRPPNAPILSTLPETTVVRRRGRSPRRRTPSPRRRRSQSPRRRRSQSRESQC

CCAAGUCAUUCGCAAGAGUGGCUUGG (structured_RNA) [SL26]: no binding (H-cp149); binds (R-cp); binds (B-cp). CCAAGUCAUUCGCAAGAGUGGCUUGG (structured_RNA) [SL26]: binds (H-cp183).
